These results are taken from patent publication US20210063414A1, “METHODS FOR PREVENTING AND/OR TREATING BONE LOSS CONDITIONS BY MODULATING IRISIN” (Dana-Farber Cancer Institute, Inc., priority 2018, published 2021).

Common to all, as to assay: Crosslinking/co-immunoprecipitation/mass spectrometry (TMT quantitative proteomics) to identify irisin receptors
Format in all cases: binding

Experiment [1] concerns the target T1, MLO-Y4 cell surface proteins (Mus musculus, UniProt P61161).
T1 construct: endogenous in cells; host or cells: MLO-Y4
The note with it: co-precipitated protein Actr2 (ARP2_MOUSE). The procedure, abridged: (§1)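 Relative protein abundance came from 6-plex TMT MS3 quantitation on an Orbitrap Fusion Lumos, after in-gel trypsin digestion of Coomassie-stained SDS-PAGE lanes. Input was a Ni-NTA pulldown (250 mM imidazole elution) of lysates from murine MLO-Y4 cells. These cells were treated on ice with His-tagged irisin or adipsin (10 nM, 20 min) in serum-free medium, then crosslinked with 1.5 mM DTSSP for 30 min.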

In experiment [2] the target is T2, MLO-Y4 cell surface proteins (Mus musculus, UniProt Q3U2P1).
T2 construct: endogenous in cells; host or cells: MLO-Y4
T2 sequence (Q3U2P1 1-1090): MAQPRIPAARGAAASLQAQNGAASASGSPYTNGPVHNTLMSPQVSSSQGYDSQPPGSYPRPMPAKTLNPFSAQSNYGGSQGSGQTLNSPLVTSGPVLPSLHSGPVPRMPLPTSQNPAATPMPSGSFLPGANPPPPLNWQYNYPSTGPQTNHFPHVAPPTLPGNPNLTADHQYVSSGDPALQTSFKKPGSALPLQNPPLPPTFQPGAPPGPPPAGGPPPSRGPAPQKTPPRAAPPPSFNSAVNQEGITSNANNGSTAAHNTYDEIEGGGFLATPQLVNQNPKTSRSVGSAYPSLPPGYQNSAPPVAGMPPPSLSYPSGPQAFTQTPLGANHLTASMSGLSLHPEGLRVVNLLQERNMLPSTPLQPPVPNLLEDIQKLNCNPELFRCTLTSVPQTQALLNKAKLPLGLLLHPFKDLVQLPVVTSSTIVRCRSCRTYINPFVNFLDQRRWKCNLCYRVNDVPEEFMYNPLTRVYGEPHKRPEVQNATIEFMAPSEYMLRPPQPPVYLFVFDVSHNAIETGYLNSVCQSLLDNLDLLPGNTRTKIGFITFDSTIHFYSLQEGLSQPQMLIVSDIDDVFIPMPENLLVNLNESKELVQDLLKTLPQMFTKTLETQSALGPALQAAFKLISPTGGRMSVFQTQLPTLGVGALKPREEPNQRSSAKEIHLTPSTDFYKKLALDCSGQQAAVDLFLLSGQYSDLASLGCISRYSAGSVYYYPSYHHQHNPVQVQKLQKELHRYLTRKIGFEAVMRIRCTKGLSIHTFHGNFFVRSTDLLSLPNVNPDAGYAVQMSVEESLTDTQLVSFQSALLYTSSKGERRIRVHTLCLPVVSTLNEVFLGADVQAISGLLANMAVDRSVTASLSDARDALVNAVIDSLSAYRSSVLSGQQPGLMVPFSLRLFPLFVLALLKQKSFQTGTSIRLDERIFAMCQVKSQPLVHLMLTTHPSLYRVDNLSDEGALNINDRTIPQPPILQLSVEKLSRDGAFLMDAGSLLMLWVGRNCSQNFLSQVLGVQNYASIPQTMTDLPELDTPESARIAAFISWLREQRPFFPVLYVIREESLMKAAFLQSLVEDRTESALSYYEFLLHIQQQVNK
The note with it: co-precipitated protein Sec24a (SC24A_MOUSE). Put shortly:
as §1

The target of experiment [3] is T3, MLO-Y4 cell surface proteins (Mus musculus, UniProt P59999).
T3 construct: endogenous in cells; host or cells: MLO-Y4
Particulars: co-precipitated protein Atpc4 (ARPC4_MOUSE). The procedure, abridged: as §1

B1: irisin: secreted cleaved form of FNDC5; recombinant human/mouse irisin with C-terminal his tag produced in HEK293 cells (protein)
chain: DSPSAPVNVTVRHLKANSAVVSWDVLEDEVVIGFAISQQKKDVRMLRFIQEVNTTTRSCALWDLEEDTEYIVHVQAISIQGQSPASEPVLFKTPREAEKMASKNKDEVTMKE
modifications: left off: small tags and cut ends
notes: secreted cleaved form of FNDC5; recombinant human/mouse irisin with C-terminal his tag produced in HEK293 cells
As to B1, the TMT signal-to-noise ratio in experiment [1] was determined as 84.7644; in experiment [2], 29.3088; in experiment [3], 74.075. For the same molecule, the “irisin/adipsin TMT signal-to-noise ratio” value stood at 0.552 in experiment [1], 0.246 in experiment [2] and 0.536 in experiment [3].
